Sequences and labels used below:
B1: C(1-8;3-9) peptide (peptide)
peptide: CPCFLLGCC
modifications: disulfide 1-8, 3-9
notes: also called LLG-C4 peptide; LLG-C4 nonapeptide

Bridge positions count the residues as written; N and C are the ends. Ends that are not written are not given here.

In the first assay the target is αMβ2 integrin (Mac-1) (UniProt P11215 17-1152; P05107 23-769). Kind of assay: phage display biopanning on coated αMβ2 integrin. Here is the method:
The αMβ₂ integrin was purified by antibody affinity chromatography from buffy coats obtained from Finnish Red Cross Blood Transfusion Service as described previously (Li et al., 1995). Integrin diluted in Tris-buffered saline (TBS)/1 mM MnCl₂ was coated onto microtiter wells overnight at 4° C. using […] per well in the first biopanning and 100, 10 and 1 ng in subsequent pannings. The wells were blocked with 5% BSA in TBS for 1 h at 22° C. and then washed five times with TBS. Biopanning was performed using CX₇C and CX₉GC phage peptide libraries essentially as described (Koivunen et al., 1994). The construction of libraries was modified so that the single-stranded DNA encoding degenerate sequences was converted into a double-stranded form using 5 cycles of PCR with only the reverse primer and then 11 cycles with both the reverse and forward primer. A total of 6 μg of the double-stranded oligonucleotide was purified using QIAGEN PCR purification kit and ligated with 42 μg of the Fuse5 phage vector. The number of recombinants in the libraries was more than 10⁹. Phage binding, elution and subsequent amplification in E. coli were repeated five times, and after each panning bacterial colonies were picked up and stored in a 10 μl volume of TBS in microtiter wells at −20° C. For direct colony sequencing, […] aliquots of the thawed samples were subjected to PCR with 10 pmol each of the forward primer 5′ […] 3′ and the reverse primer 5′[…] 3′. The PCR conditions were 92° C. for 30 s, 60° C. for 30 s, and 72° C. for 60 s, and the cycle number was 35. One μl aliquot of the PCR reaction was taken for sequencing using 15 pmol of either one of the primers and analyzed on an ABI 310 apparatus (PE Applied Biosystems, Foster City, Calif.).
After the fifh round of selection, the CX₇C library gave a 600-fold enrichment and CX₉GC a 1000-fold enrichment of phage bound to the integrin in comparison to background. […] Four of them contained the LLG tripeptide motif.
On to CWHKDLLGC [phage displaying CWHKDLLGC], for which the binding result was “binds”. Take CPPDLFWYC [phage displaying CPPDLFWYC]: the binding result is “binds”. The same measure, in the same setting: the value for CPCFLLGCC [phage displaying CPCFLLGCC (LLG-C4)] was “binds”. In the case of CWSMELLGC [phage displaying CWSMELLGC], the binding result is on record as “binds”. Same read-out and setting: the value for CWKLLGSEEEC [phage displaying CWKLLGSEEEC] was “binds”.

In the next assay the target is T1, αLβ2 integrin on Jurkat cells (UniProt P20701 26-1170; P05107 23-769, limits assumed).
T1 construct: whole, on cells
Nature of the assay: inhibition of αLβ2-mediated Jurkat cell adhesion to ICAM-1-Fc (coated directly or captured via protein A), Crystal Violet staining.
For orientation: IC50 means the midpoint of a concentration-inhibition curve. B1 displayed an IC50 of around 80 µM.
